The values that follow come from US20240240209A1, “SYNTHESIS OF ENANTIOPURE CIS-A-IRONE FROM A RENEWABLE CARBON SOURCE” (Agency for Science, Technology and Research, priority 2021, published 2024).

The nature of the assay: In-vivo cis-α-irone production screening of pMT7 and pMT12 mutants. The format is cell-based, Escherichia coli. As to conditions: mutations made to pMT12; normalized to pMT12 (=1). An excerpt:
Q60 was identified as another possible mutation site.
FIGS. 24a and 24b show the in-vivo and in-vitro cis-α-irone production of other possible single mutations to pMT12. The in-vitro results in FIG. 24b validate the mutations and in-vivo results in FIG. 24a. The mutations in FIG. 24 include Q11H (SEQ ID No. 23), V12R (SEQ ID No. 24), A95C (SEQ ID No. 25), H123Q (SEQ ID No. 26), E127T (SEQ ID No. 27), M137T (SEQ ID No. 28), D176V (SEQ ID No. 29), D176Y (SEQ ID No. 30). P191S (SEQ ID No. 31), P191V (SEQ ID No. 32), F212L (SEQ ID No. 33), S268H (SEQ ID No. 34), AND T272A (SEQ ID No. 35). The screening results in FIGS. 24 and 25 are semi-quantitative to identify beneficial mutants that give greater than one-fold change of irone production as compared to pMT12.
FIGS. 25a to 25c (and Table 4) show the in-vivo testing results of other possible mutations that may be made to pMT12 to improve its in-vivo production of cis-α-irone. FIGS. 25a to 25c each include two dotted lines to account for a 10% error bar to show the normalized fold change of 0.9 and 1.1.
The four plasmids were transformed into E. coli BL21 (DE3), ΔaroA, ΔaroB, ΔaroC, ΔserC or E. coli BL21 (DE3), ΔaroA, ΔaroB, ΔaroC, ΔserC, ΔmetJ strains and plated on Agar plate containing LB media (10 g, tryptone. 5 g, yeast extract. 10 g, NaCl) supplemented with appropriate antibiotics (100 mg/L ampicillin, 34 mg/L chloramphenicol, 50 mg/L kanamycin, and 100 mg/L spectinomycin). One colony was picked and inoculate into LB media with antibiotics. 1% of overnight culture was inoculated into 1 ml fresh auto-inducing chemically defined media. The chemical media contains carbon source solution: 0.5 g/L glucose, 10 g/L glycerol; inducer: 30 mM lactose and base media: 2 g/L ammonium sulfate, 4.2 g/L KH2PO4, 11.24 g/L K2HPO4, 1.7 g/L citric acid, 0.5 g/L MgSO4, and 10 mL/L trace element solution. The trace element solution (100×) contained 0.25 g/L CoCl2·6H2O, 1.5 g/L MnSO4·4H2O, 0.15 g/L CuSO4·2H2O, 0.3 g/L H3BO3, 0.25 g/L Na2MoO4·2H2O, 0.8 g/L Zn(CH3COO)2, 5 g/L Fe(III) citrate, and 0.84 g/L ethylenediaminetetra-acetic acid (EDTA) at pH 8.0. The culture was grown at 28° C. for 3 days and the products were extracted with 1 ml hexane for GCMS analysis. An example of a fed-batch process for α-ionone Is briefly described, overnight culture was inoculated into 2 L chemical media comprising the base media and 5 g/L glucose, at 37° C. and 30% DO. pH was controlled at 7 with base solution (14% ammonia and 0.5 M NaOH). Feed media (500 g/L glucose and 5 g/L MgSO4) was added into bioreactor once OD600 reached 5, at a rate of 7.15-25.75 g/h glucose for about 4-5 h until OD600 reached ˜30-40. Subsequently, 0.1 mM IPTG was added to induce the production, and feeding rate was kept at a constant rate of 10 g/h glucose, and the temperature was reduced to 30° C. DO was adjusted to 2% or 10%. Feeding was stopped at 113 h when 2 L feeding media was finished, but the culture was further incubated for 24 h. To capture the evaporated products, the exhaust was connected to 25 ml sunflower oil.

B1: Q11W (protein)
chain: MPQEARTPQQWVTADEVGDWYDKFGEVYHLTLGESVHCGLWFPPDAPVPQDMELVTMSSQAQDRFTDYLIETLDPKAGQHLLDIGCGTGRPALKAARQRGIAVTGVAVSKEQIAAANRLAAGHGLTERLTFEVADAMRLPYEDESFDCAWAIESLDHMDRAKALGEAWRVLKPGGDLLVAEEVVTEELTEPETALFETLFALNVPPRLGEFFDIVSGAGFHTLSLKDLSADLAMTMNVFALGVYSRRAEFTERFGAEFVDGLLAGLGSAQETVIRKTRFFMATLRKPAV
modifications: Modified from pMT1
Turning to B1, the “Fold change in in-vivo cis-α-irone production” value (shortened to “Fold change”) is on record as 0.90.

B2: V12G (protein)
chain: MPQEARTPQQQGTADEVGDWYDKFGEVYHLTLGESVHCGLWFPPDAPVPQDMELVTMSSQAQDRFTDYLIETLDPKAGQHLLDIGCGTGRPALKAARQRGIAVTGVAVSKEQIAAANRLAAGHGLTERLTFEVADAMRLPYEDESFDCAWAIESLDHMDRAKALGEAWRVLKPGGDLLVAEEVVTEELTEPETALFETLFALNVPPRLGEFFDIVSGAGFHTLSLKDLSADLAMTMNVFALGVYSRRAEFTERFGAEFVDGLLAGLGSAQETVIRKTRFFMATLRKPAV
modifications: Modified from pMT1
On to B2, for which the “Fold change” value was 0.97.

B3: V12A (protein)
chain: MPQEARTPQQQATADEVGDWYDKFGEVYHLTLGESVHCGLWFPPDAPVPQDMELVTMSSQAQDRFTDYLIETLDPKAGQHLLDIGCGTGRPALKAARQRGIAVTGVAVSKEQIAAANRLAAGHGLTERLTFEVADAMRLPYEDESFDCAWAIESLDHMDRAKALGEAWRVLKPGGDLLVAEEVVTEELTEPETALFETLFALNVPPRLGEFFDIVSGAGFHTLSLKDLSADLAMTMNVFALGVYSRRAEFTERFGAEFVDGLLAGLGSAQETVIRKTRFFMATLRKPAV
modifications: Modified from pMT1
On to B3, for which the “Fold change” value is listed as 0.97.

B4: E190P, G122S (protein)
chain: MPQEARTPQQQVTADEVGDWYDKFGEVYHLTLGESVHCGLWFPPDAPVPQDMELVTMSSQAQDRFTDYLIETLDPKAGQHLLDIGCGTGRPALKAARQRGIAVTGVAVSKEQIAAANRLAASHGLTERLTFEVADAMRLPYEDESFDCAWAIESLDHMDRAKALGEAWRVLKPGGDLLVAEEVVTEELTPPETALFETLFALNVPPRLGEFFDIVSGAGFHTLSLKDLSADLAMTMNVFALGVYSRRAEFTERFGAEFVDGLLAGLGSAQETVIRKTRFFMATLRKPAV
Regarding B4, the “Fold change” value turned out to be 1.02.

B5: H123Q (protein)
chain: MPQEARTPQQQVTADEVGDWYDKFGEVYHLTLGESVHCGLWFPPDAPVPQDMELVTMSSQAQDRFTDYLIETLDPKAGQHLLDIGCGTGRPALKAARQRGIAVTGVAVSKEQIAAANRLAAGQGLTERLTFEVADAMRLPYEDESFDCAWAIESLDHMDRAKALGEAWRVLKPGGDLLVAEEVVTEELTEPETALFETLFALNVPPRLGEFFDIVSGAGFHTLSLKDLSADLAMTMNVFALGVYSRRAEFTERFGAEFVDGLLAGLGSAQETVIRKTRFFMATLRKPAV
modifications: Modified from pMT1
Take B5: the “Fold change” value is 0.87.

B6: P191I (protein)
chain: MPQEARTPQQQVTADEVGDWYDKFGEVYHLTLGESVHCGLWFPPDAPVPQDMELVTMSSQAQDRFTDYLIETLDPKAGQHLLDIGCGTGRPALKAARQRGIAVTGVAVSKEQIAAANRLAAGHGLTERLTFEVADAMRLPYEDESFDCAWAIESLDHMDRAKALGEAWRVLKPGGDLLVAEEVVTEELTEIETALFETLFALNVPPRLGEFFDIVSGAGFHTLSLKDLSADLAMTMNVFALGVYSRRAEFTERFGAEFVDGLLAGLGSAQETVIRKTRFFMATLRKPAV
modifications: Modified from pMT1
For B6, the “Fold change” value amounted to 1.31.

B7: P191Y (protein)
chain: MPQEARTPQQQVTADEVGDWYDKFGEVYHLTLGESVHCGLWFPPDAPVPQDMELVTMSSQAQDRFTDYLIETLDPKAGQHLLDIGCGTGRPALKAARQRGIAVTGVAVSKEQIAAANRLAAGHGLTERLTFEVADAMRLPYEDESFDCAWAIESLDHMDRAKALGEAWRVLKPGGDLLVAEEVVTEELTEYETALFETLFALNVPPRLGEFFDIVSGAGFHTLSLKDLSADLAMTMNVFALGVYSRRAEFTERFGAEFVDGLLAGLGSAQETVIRKTRFFMATLRKPAV
modifications: Modified from pMT1
As to B7, the “Fold change” value is recorded as 1.29.

B8: T126S (protein)
chain: MPQEARTPQQQVTADEVGDWYDKFGEVYHLTLGESVHCGLWFPPDAPVPQDMELVTMSSQAQDRFTDYLIETLDPKAGQHLLDIGCGTGRPALKAARQRGIAVTGVAVSKEQIAAANRLAAGHGLSERLTFEVADAMRLPYEDESFDCAWAIESLDHMDRAKALGEAWRVLKPGGDLLVAEEVVTEELTEPETALFETLFALNVPPRLGEFFDIVSGAGFHTLSLKDLSADLAMTMNVFALGVYSRRAEFTERFGAEFVDGLLAGLGSAQETVIRKTRFFMATLRKPAV
modifications: Modified from pMT1
Regarding B8, the “Fold change” value came to 0.96.

B9: T126E (protein)
chain: MPQEARTPQQQVTADEVGDWYDKFGEVYHLTLGESVHCGLWFPPDAPVPQDMELVTMSSQAQDRFTDYLIETLDPKAGQHLLDIGCGTGRPALKAARQRGIAVTGVAVSKEQIAAANRLAAGHGLEERLTFEVADAMRLPYEDESFDCAWAIESLDHMDRAKALGEAWRVLKPGGDLLVAEEVVTEELTEPETALFETLFALNVPPRLGEFFDIVSGAGFHTLSLKDLSADLAMTMNVFALGVYSRRAEFTERFGAEFVDGLLAGLGSAQETVIRKTRFFMATLRKPAV
modifications: Modified from pMT1
As for B9, the “Fold change” value was found to be 0.88.

B10: V12K (protein)
chain: MPQEARTPQQQKTADEVGDWYDKFGEVYHLTLGESVHCGLWFPPDAPVPQDMELVTMSSQAQDRFTDYLIETLDPKAGQHLLDIGCGTGRPALKAARQRGIAVTGVAVSKEQIAAANRLAAGHGLTERLTFEVADAMRLPYEDESFDCAWAIESLDHMDRAKALGEAWRVLKPGGDLLVAEEVVTEELTEPETALFETLFALNVPPRLGEFFDIVSGAGFHTLSLKDLSADLAMTMNVFALGVYSRRAEFTERFGAEFVDGLLAGLGSAQETVIRKTRFFMATLRKPAV
modifications: Modified from pMT1
Take B10: the “Fold change” value amounted to 1.00.

B11: H123S (protein)
chain: MPQEARTPQQQVTADEVGDWYDKFGEVYHLTLGESVHCGLWFPPDAPVPQDMELVTMSSQAQDRFTDYLIETLDPKAGQHLLDIGCGTGRPALKAARQRGIAVTGVAVSKEQIAAANRLAAGSGLTERLTFEVADAMRLPYEDESFDCAWAIESLDHMDRAKALGEAWRVLKPGGDLLVAEEVVTEELTEPETALFETLFALNVPPRLGEFFDIVSGAGFHTLSLKDLSADLAMTMNVFALGVYSRRAEFTERFGAEFVDGLLAGLGSAQETVIRKTRFFMATLRKPAV
modifications: Modified from pMT1
In the case of B11, the “Fold change” value is 0.84.

B12: P191L (protein)
chain: MPQEARTPQQQVTADEVGDWYDKFGEVYHLTLGESVHCGLWFPPDAPVPQDMELVTMSSQAQDRFTDYLIETLDPKAGQHLLDIGCGTGRPALKAARQRGIAVTGVAVSKEQIAAANRLAAGHGLTERLTFEVADAMRLPYEDESFDCAWAIESLDHMDRAKALGEAWRVLKPGGDLLVAEEVVTEELTELETALFETLFALNVPPRLGEFFDIVSGAGFHTLSLKDLSADLAMTMNVFALGVYSRRAEFTERFGAEFVDGLLAGLGSAQETVIRKTRFFMATLRKPAV
modifications: Modified from pMT1
Turning to B12, the “Fold change” value came to 1.12.
